Broadly, the stoichiometry N is a count of units in the complex or per binding partner.

The record followed here is publication PMC2553580 (Nucleic Acids Research, 2008).

The data set deals with the molecule itself. The data set can be described thus: native gel or EMSA. For orientation: In EMSA bound probe runs differently from free probe, usually more slowly.

B1: long isoform of Sox5 (natural protein)
chain: not shown
Consider B1, for which the “stoichiometry N” value came out at 2.
